One experiment concerns the target HLA-A*68:02. Briefly: IEDB peptide-MHC binding, cellular MHC/competitive/fluorescence; ≥ and ≤ were set here for values at or beyond the usual limits of such assays.
The target of the next experiment is HLA-A*02:01. The experiment in a line: IEDB peptide-MHC binding, purified MHC/competitive/radioactivity; ≥ and ≤ were set here for values at or beyond the usual limits of such assays.
Another experiment concerns the target HLA-A*02:02. Described as above.
The next experiment addresses HLA-A*02:03. The description is as above.
For another experiment, the target named is HLA-A*02:06. The experiment is described as above.
Setting [1] is: source organism: Mammarenavirus lassaense.
Where [2] appears, read: source organism: Vaccinia virus WR.
The mark [3] stands for this setting: source organism: Mammarenavirus choriomeningitidis.
Setting [4] is: source organism: Hepacivirus hominis.
The mark [5] stands for this setting: source organism: Influenza A virus.

pIC50: −log10 of the molar value.

For orientation: pIC50 means the negative decadic logarithm of the IC50, by convention in mol/L. In the case of LNISGYNFSL, the negative logarithm of the IC50 (pIC50) was 5.22 with HLA-A*68:02 (setting [1]); 6.43 with HLA-A*02:01 (setting [1]); 7.80 with HLA-A*02:02 (setting [1]); 5.34 in the experiment with HLA-A*02:03 (setting [1]); 6.38 with HLA-A*02:06 (setting [1]).
For the sequence LQISRVNDL, the pIC50 with HLA-A*68:02 (setting [2]) is at most 4.15; in the experiment with HLA-A*02:01 (setting [2]) it was 5.77; with HLA-A*02:02 (setting [2]), 7.05; with HLA-A*02:03 (setting [2]) it was 7.96; with HLA-A*02:06 (setting [2]), 6.64.
As to LSAEELMSL, the pIC50 in the experiment with HLA-A*68:02 (setting [3]) was 5.23; with HLA-A*02:01 (setting [3]), 5.66; with HLA-A*02:02 (setting [3]), 7.19; with HLA-A*02:03 (setting [3]) it was 6.15; in the experiment with HLA-A*02:06 (setting [3]), 7.18.
For LVFLILCFT, the pIC50 was 5.18 in the experiment with HLA-A*68:02 (source organism: SARS-CoV1); 6.29 with HLA-A*02:01 (source organism: SARS-CoV1); 5.60 with HLA-A*02:02 (source organism: SARS-CoV1); 5.73 in the experiment with HLA-A*02:03 (source organism: SARS-CoV1); 5.86 with HLA-A*02:06 (source organism: SARS-CoV1).
For LVTSFLLMIV, the pIC50 was 5.24 in the experiment with HLA-A*68:02 (source organism: SARS-CoV1); 6.11 with HLA-A*02:01 (source organism: SARS-CoV1); 7.51 with HLA-A*02:02 (source organism: SARS-CoV1); 7.92 with HLA-A*02:03 (source organism: SARS-CoV1); 6.79 with HLA-A*02:06 (source organism: SARS-CoV1).
On to MLCLLLLSV, for which the negative logarithm of the IC50 (pIC50) with HLA-A*68:02 (setting [4]) was 4.81; with HLA-A*02:01 (setting [4]), 6.85; in the experiment with HLA-A*02:02 (setting [4]), 6.68; with HLA-A*02:03 (setting [4]) it was 6.58; in the experiment with HLA-A*02:06 (setting [4]), 6.49.
In the case of MLDDFSAGA, the negative logarithm of the IC50 (pIC50) is 4.98 with HLA-A*68:02 (setting [2]); 9.37 in the experiment with HLA-A*02:01 (setting [2]); 7.17 in the experiment with HLA-A*02:02 (setting [2]); 7.14 with HLA-A*02:03 (setting [2]); 6.94 in the experiment with HLA-A*02:06 (setting [2]).
Take MLLIAQAEA: the pIC50 is 5.21 in the experiment with HLA-A*68:02 (setting [4]); 7.09 with HLA-A*02:01 (setting [4]); 6.85 with HLA-A*02:02 (setting [4]); 6.91 with HLA-A*02:03 (setting [4]); 6.19 with HLA-A*02:06 (setting [4]).
For the sequence MLVNGDDLVV, the negative logarithm of the IC50 (pIC50) was 5.05 in the experiment with HLA-A*68:02 (setting [4]); 7.25 with HLA-A*02:01 (setting [4]); 7.27 with HLA-A*02:02 (setting [4]); 6.98 with HLA-A*02:03 (setting [4]); 6.73 with HLA-A*02:06 (setting [4]).
On to MMQNDYGGM, for which the pIC50 with HLA-A*68:02 (setting [2]) was at most 4.15; in the experiment with HLA-A*02:01 (setting [2]) it was 5.89; with HLA-A*02:02 (setting [2]), 5.97; in the experiment with HLA-A*02:03 (setting [2]), 5.56; with HLA-A*02:06 (setting [2]), 5.78.
As for NLAPHLLLIV, the pIC50 is 5.14 in the experiment with HLA-A*68:02 (source organism: SARS-CoV1); 6.69 with HLA-A*02:01 (source organism: SARS-CoV1); 8.29 with HLA-A*02:02 (source organism: SARS-CoV1); 8.96 in the experiment with HLA-A*02:03 (source organism: SARS-CoV1); 6.90 with HLA-A*02:06 (source organism: SARS-CoV1).
NLLEQLIENI: the pIC50 in the experiment with HLA-A*68:02 (setting [2]) is 4.61; with HLA-A*02:01 (setting [2]), 6.49; with HLA-A*02:02 (setting [2]), 6.08; with HLA-A*02:03 (setting [2]) it was 5.84; with HLA-A*02:06 (setting [2]), 6.40.
With PTILATLNTL, the pIC50 with HLA-A*68:02 (setting [2]) is 5.01; with HLA-A*02:01 (setting [2]), 5.87; with HLA-A*02:02 (setting [2]), 6.43; with HLA-A*02:03 (setting [2]), 6.89; with HLA-A*02:06 (setting [2]), 6.11.
As for PTWLGAAITL, the pIC50 was 5.13 with HLA-A*68:02 (setting [2]); 5.32 in the experiment with HLA-A*02:01 (setting [2]); 5.87 with HLA-A*02:02 (setting [2]); 6.00 with HLA-A*02:03 (setting [2]); 5.75 with HLA-A*02:06 (setting [2]).
As to PVLEKKVCAI, the pIC50 is 4.40 with HLA-A*68:02 (setting [2]); 5.82 in the experiment with HLA-A*02:01 (setting [2]); 6.27 with HLA-A*02:02 (setting [2]); 5.92 with HLA-A*02:03 (setting [2]); 5.98 with HLA-A*02:06 (setting [2]).
In the case of QIGGEAIFLI, the pIC50 was at most 4.15 with HLA-A*68:02 (setting [2]); 6.42 with HLA-A*02:01 (setting [2]); 8.09 with HLA-A*02:02 (setting [2]); 9.70 in the experiment with HLA-A*02:03 (setting [2]); 7.82 in the experiment with HLA-A*02:06 (setting [2]).
Consider QLLKILDNL, for which the pIC50 in the experiment with HLA-A*68:02 (setting [2]) is 4.66; in the experiment with HLA-A*02:01 (setting [2]), 6.36; with HLA-A*02:02 (setting [2]), 6.64; with HLA-A*02:03 (setting [2]), 6.50; with HLA-A*02:06 (setting [2]), 6.87.
For QLVKDESIQL, in that order: 5.10, 6.04, 6.80, 6.89 and 5.74.
In the same order, the values of QVLQQNNSFI are 5.00, 5.83, 6.26, 5.50 and 5.63.
In the same order, the values of RALKAYFTA are 4.94, 6.80, 5.63, 6.69 and 7.85.
RIKSVLDII: the pIC50 in the experiment with HLA-A*68:02 (setting [2]) was 4.84; in the experiment with HLA-A*02:01 (setting [2]) it was 5.33; with HLA-A*02:02 (setting [2]), 6.95; with HLA-A*02:03 (setting [2]), 7.74; in the experiment with HLA-A*02:06 (setting [2]) it was 5.68.
Consider RILGAGCFV, for which the negative-log IC50 (pIC50) was 5.15 with HLA-A*68:02 (source organism: SARS-CoV1); 7.70 with HLA-A*02:01 (source organism: SARS-CoV1); 7.62 in the experiment with HLA-A*02:02 (source organism: SARS-CoV1); 7.28 in the experiment with HLA-A*02:03 (source organism: SARS-CoV1); 7.42 with HLA-A*02:06 (source organism: SARS-CoV1).
In the case of RLFTRCAVI, the negative-log IC50 (pIC50) with HLA-A*68:02 (setting [2]) is 5.18; with HLA-A*02:01 (setting [2]), 6.68; with HLA-A*02:02 (setting [2]) it was 7.03; with HLA-A*02:03 (setting [2]), 6.60; with HLA-A*02:06 (setting [2]) it was 5.55.
RLHGLEAFSL: the negative-log IC50 (pIC50) in the experiment with HLA-A*68:02 (setting [4]) was 4.73; in the experiment with HLA-A*02:01 (setting [4]), 6.65; with HLA-A*02:02 (setting [4]), 7.46; in the experiment with HLA-A*02:03 (setting [4]) it was 6.22; in the experiment with HLA-A*02:06 (setting [4]), 6.19.
Turning to RLIQNSITI, the negative logarithm of the IC50 (pIC50) with HLA-A*68:02 (setting [5]) is at most 4.15; with HLA-A*02:01 (setting [5]) it was 7.08; with HLA-A*02:02 (setting [5]), 6.86; in the experiment with HLA-A*02:03 (setting [5]), 7.55; in the experiment with HLA-A*02:06 (setting [5]), 5.88.
On to RLIVYPDLGV, for which the negative logarithm of the IC50 (pIC50) with HLA-A*68:02 (setting [4]) is 5.18; with HLA-A*02:01 (setting [4]), 7.37; with HLA-A*02:02 (setting [4]), 8.72; with HLA-A*02:03 (setting [4]), 7.82; in the experiment with HLA-A*02:06 (setting [4]) it was 6.89.
Consider RLLDLSSWFT, for which the pIC50 with HLA-A*68:02 (setting [4]) was 4.95; with HLA-A*02:01 (setting [4]) it was 7.70; with HLA-A*02:02 (setting [4]), 6.52; with HLA-A*02:03 (setting [4]), 6.50; in the experiment with HLA-A*02:06 (setting [4]) it was 7.09.
For RLVPGATYAL, in that order: 4.34, 6.82, 7.92, 6.08 and 6.08.
With RMPTDMLKL, the negative logarithm of the IC50 (pIC50) was at most 4.15 with HLA-A*68:02 (setting [2]); 5.74 with HLA-A*02:01 (setting [2]); 6.02 in the experiment with HLA-A*02:02 (setting [2]); 6.97 with HLA-A*02:03 (setting [2]); 6.17 in the experiment with HLA-A*02:06 (setting [2]).
For SALMTLDDL, in that order: 5.16, 5.96, 6.39, 6.15 and 7.00.
Consider SALMTLDDLA, for which the pIC50 with HLA-A*68:02 (setting [2]) was 4.72; with HLA-A*02:01 (setting [2]), 6.60; in the experiment with HLA-A*02:02 (setting [2]), 6.68; with HLA-A*02:03 (setting [2]), 5.63; with HLA-A*02:06 (setting [2]) it was 6.71.
Consider SIKMIYDLNA, for which the pIC50 in the experiment with HLA-A*68:02 (setting [2]) is 5.24; with HLA-A*02:01 (setting [2]), 5.75; with HLA-A*02:02 (setting [2]), 6.07; with HLA-A*02:03 (setting [2]) it was 6.59; with HLA-A*02:06 (setting [2]), 5.99.
In the same order, the values of SILSLETVKM are 4.95, 5.88, 6.69, 6.34 and 6.09.
For SINITPDDGL, the pIC50 is 5.23 in the experiment with HLA-A*68:02 (setting [2]); 5.99 in the experiment with HLA-A*02:01 (setting [2]); 6.38 with HLA-A*02:02 (setting [2]); 5.91 with HLA-A*02:03 (setting [2]); 9.47 in the experiment with HLA-A*02:06 (setting [2]).
For SINNQLMYDI, the negative-log IC50 (pIC50) with HLA-A*68:02 (setting [2]) is 5.19; with HLA-A*02:01 (setting [2]) it was 5.62; with HLA-A*02:02 (setting [2]), 6.31; with HLA-A*02:03 (setting [2]) it was 6.32; with HLA-A*02:06 (setting [2]) it was 5.32.
For SLDQTHIKTI, the pIC50 with HLA-A*68:02 (setting [2]) was 5.12; in the experiment with HLA-A*02:01 (setting [2]) it was 6.12; with HLA-A*02:02 (setting [2]), 5.85; with HLA-A*02:03 (setting [2]), 7.82; in the experiment with HLA-A*02:06 (setting [2]) it was 5.61.
